# Experimental data: patent publication US20160075771A1 (ZESTAGEN S A, published 2016)
# B1: monoclonal antibody (mAb) 4C5 (antibody, V domains shown)
# VL: ELVMTQSPSSMYASLGERVTITCKASQDINSYLSWFQQKPGKSPKTLIYRANRLVDGVPSRFSGSGSGQDYSLTINSLEYEDMGIYYCLQYDEFPRLTFGAGTRLELKR
# B2: recombinant 4C5 (antibody, V domains shown)
# VL: ELVMTQSPSSMYASLGERVTITCKASQDINSYLSWFQQKPGKSPKTLIYRANRLVDGVPSRFSGSGSGQDYSLTINSLEYEDMGIYYCLQYDEFPRLTFGAGTRLELKR
# B3: human-mouse chimeric 4C5 antibody (antibody, V domains shown)
# VL: ELVMTQSPSSMYASLGERVTITCKASQDINSYLSWFQQKPGKSPKTLIYRANRLVDGVPSRFSGSGSGQDYSLTINSLEYEDMGIYYCLQYDEFPRLTFGAGTRLELKR
# Molecular target: surface HSP90 on MDAMB453 breast cancer cells (human, UniProt P07900 2-732)
# Assay: cell-based or functional assay
row,Binder,"inhibition of wound closure, MDAMB453 in vitro wound healing assay, 200 µg/ml, 48 hours [%]"
1,B1,55.3
2,B2,46.5
3,B3,51.2
